Experimental findings from patent publication US20260176319A1 (KALLYOPE, published 2026) are described below.

Starred links: 1 amine or outer side, 2 acyl side, 3 side chain; linkers in the order of their positions; H or OH if unused. Non-standard residues stand in square brackets, D forms with d. *: point of attachment. Trp(6-Me) = Cc1ccc2c(C[C@H](N)C(=O)O)c[nH]c2c1; Trp(7-Me) = Cc1cccc2c(C[C@H](N)C(=O)O)c[nH]c12; d(γGlu) = O=C(O)[C@@H](CCC(=O)[*:2])N[*:1]; C18 diacid = O=C(O)CCCCCCCCCCCCCCCCC(=O)*; Palmitoyl = CCCCCCCCCCCCCCCC(=O)*; 3Pal = N[C@@H](Cc1cccnc1)C(=O)O; Nle = CCCC[C@H](N)C(=O)O; AEEA = NCCOCCOCC(=O)O; Aib = CC(C)(N)C(=O)O; Sar = CNCC(=O)O A value given as a limit tells only on which side of the number the result lay.

This assay deals with human GRP receptor (human, UniProt P30550 1-384). Put plainly: cell-based or functional assay.
Sequence of human GRP receptor (P30550 whole entry): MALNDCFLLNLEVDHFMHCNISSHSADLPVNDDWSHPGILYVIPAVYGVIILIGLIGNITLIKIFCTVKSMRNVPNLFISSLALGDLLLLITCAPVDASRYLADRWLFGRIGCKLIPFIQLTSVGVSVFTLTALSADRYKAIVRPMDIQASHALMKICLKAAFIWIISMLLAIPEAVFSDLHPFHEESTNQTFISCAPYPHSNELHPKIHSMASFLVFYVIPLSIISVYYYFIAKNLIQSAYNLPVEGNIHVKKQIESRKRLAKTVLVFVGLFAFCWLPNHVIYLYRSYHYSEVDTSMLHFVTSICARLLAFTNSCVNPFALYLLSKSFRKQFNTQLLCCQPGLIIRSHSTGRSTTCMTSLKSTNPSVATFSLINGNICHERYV

B1: Peptide 63 (peptide)
peptide: Palmitoyl-[d(γGlu)][AEEA][AEEA]GNH[Trp(6-Me)]AV[dA]HL[Nle]-NH2
SMILES: CCCCCCCCCCCCCCCC(=O)N[C@H](CCC(=O)NCCOCCOCC(=O)NCCOCCOCC(=O)NCC(=O)N[C@@H](CC(N)=O)C(=O)N[C@@H](Cc1c[nH]cn1)C(=O)N[C@@H](Cc1c[nH]c2cc(C)ccc12)C(=O)N[C@@H](C)C(=O)N[C@H](C(=O)N[C@H](C)C(=O)N[C@@H](Cc1c[nH]cn1)C(=O)N[C@@H](CC(C)C)C(=O)N[C@@H](CCCC)C(N)=O)C(C)C)C(=O)O
As for B1, the “hIP1 GRPR EC50” value worked out at 4.75 nM.

B2: Peptide 4 (peptide)
peptide: {C18 diacid}-[d(γGlu)][AEEA][AEEA]GNHWAV[Aib]HL[Nle]-NH2
SMILES: CCCC[C@H](NC(=O)[C@H](CC(C)C)NC(=O)[C@H](Cc1c[nH]cn1)NC(=O)C(C)(C)NC(=O)[C@@H](NC(=O)[C@H](C)NC(=O)[C@H](Cc1c[nH]c2ccccc12)NC(=O)[C@H](Cc1c[nH]cn1)NC(=O)[C@H](CC(N)=O)NC(=O)CNC(=O)COCCOCCNC(=O)COCCOCCNC(=O)CC[C@@H](NC(=O)CCCCCCCCCCCCCCCCC(=O)O)C(=O)O)C(C)C)C(N)=O
For B2, the “hIP1 GRPR EC50” value amounted to 1420 nM.

B3: Peptide 62 (peptide)
peptide: {C18 diacid}-[d(γGlu)][AEEA][AEEA]GNHWAV[dA]FL[Nle]-NH2
SMILES: CCCC[C@H](NC(=O)[C@H](CC(C)C)NC(=O)[C@H](Cc1ccccc1)NC(=O)[C@@H](C)NC(=O)[C@@H](NC(=O)[C@H](C)NC(=O)[C@H](Cc1c[nH]c2ccccc12)NC(=O)[C@H](Cc1c[nH]cn1)NC(=O)[C@H](CC(N)=O)NC(=O)CNC(=O)COCCOCCNC(=O)COCCOCCNC(=O)CC[C@@H](NC(=O)CCCCCCCCCCCCCCCCC(=O)O)C(=O)O)C(C)C)C(N)=O
B3: the “hIP1 GRPR EC50” value came to 83.7 nM.

B4: Peptide 65 (peptide)
peptide: {C18 diacid}-[d(γGlu)][AEEA][AEEA]GK(Ac)HWAV[dA]HL[Nle]-NH2
SMILES: CCCC[C@H](NC(=O)[C@H](CC(C)C)NC(=O)[C@H](Cc1c[nH]cn1)NC(=O)[C@@H](C)NC(=O)[C@@H](NC(=O)[C@H](C)NC(=O)[C@H](Cc1c[nH]c2ccccc12)NC(=O)[C@H](Cc1c[nH]cn1)NC(=O)[C@H](CCCCNC(C)=O)NC(=O)CNC(=O)COCCOCCNC(=O)COCCOCCNC(=O)CC[C@@H](NC(=O)CCCCCCCCCCCCCCCCC(=O)O)C(=O)O)C(C)C)C(N)=O
In the case of B4, the “hIP1 GRPR EC50” value is 6.05 nM.

B5: Peptide 69 (peptide)
peptide: {C18 diacid}-[d(γGlu)][AEEA][AEEA]GNHWAV[dA]HLR-NH2
SMILES: CC(C)C[C@H](NC(=O)[C@H](Cc1c[nH]cn1)NC(=O)[C@@H](C)NC(=O)[C@@H](NC(=O)[C@H](C)NC(=O)[C@H](Cc1c[nH]c2ccccc12)NC(=O)[C@H](Cc1c[nH]cn1)NC(=O)[C@H](CC(N)=O)NC(=O)CNC(=O)COCCOCCNC(=O)COCCOCCNC(=O)CC[C@@H](NC(=O)CCCCCCCCCCCCCCCCC(=O)O)C(=O)O)C(C)C)C(=O)N[C@@H](CCCNC(=N)N)C(N)=O
Turning to B5, the “hIP1 GRPR EC50” value was more than 10000 nM.

B6: Peptide 75 (peptide)
peptide: Palmitoyl-[d(γGlu)][AEEA][AEEA]GNHWAV[dA]HL[Nle][Aib]-NH2
SMILES: CCCCCCCCCCCCCCCC(=O)N[C@H](CCC(=O)NCCOCCOCC(=O)NCCOCCOCC(=O)NCC(=O)N[C@@H](CC(N)=O)C(=O)N[C@@H](Cc1c[nH]cn1)C(=O)N[C@@H](Cc1c[nH]c2ccccc12)C(=O)N[C@@H](C)C(=O)N[C@H](C(=O)N[C@H](C)C(=O)N[C@@H](Cc1c[nH]cn1)C(=O)N[C@@H](CC(C)C)C(=O)N[C@@H](CCCC)C(=O)NC(C)(C)C(N)=O)C(C)C)C(=O)O
For the molecule B6, the “hIP1 GRPR EC50” value stood at 18.2 nM.

B7: Peptide 76 (peptide)
peptide: {C18 diacid}-[d(γGlu)][AEEA][AEEA]GNH[Trp(7-Me)]AV[dA]HL[Nle][Aib]-NH2
SMILES: CCCC[C@H](NC(=O)[C@H](CC(C)C)NC(=O)[C@H](Cc1c[nH]cn1)NC(=O)[C@@H](C)NC(=O)[C@@H](NC(=O)[C@H](C)NC(=O)[C@H](Cc1c[nH]c2c(C)cccc12)NC(=O)[C@H](Cc1c[nH]cn1)NC(=O)[C@H](CC(N)=O)NC(=O)CNC(=O)COCCOCCNC(=O)COCCOCCNC(=O)CC[C@@H](NC(=O)CCCCCCCCCCCCCCCCC(=O)O)C(=O)O)C(C)C)C(=O)NC(C)(C)C(N)=O
Turning to B7, the “hIP1 GRPR EC50” value was found to be 358 nM.

B8: Peptide 67 (peptide)
peptide: {C18 diacid}-[d(γGlu)][AEEA][AEEA]GEHWAV[dA][3Pal]L[Nle]-NH2
SMILES: CCCC[C@H](NC(=O)[C@H](CC(C)C)NC(=O)[C@H](Cc1cccnc1)NC(=O)[C@@H](C)NC(=O)[C@@H](NC(=O)[C@H](C)NC(=O)[C@H](Cc1c[nH]c2ccccc12)NC(=O)[C@H](Cc1c[nH]cn1)NC(=O)[C@H](CCC(=O)O)NC(=O)CNC(=O)COCCOCCNC(=O)COCCOCCNC(=O)CC[C@@H](NC(=O)CCCCCCCCCCCCCCCCC(=O)O)C(=O)O)C(C)C)C(N)=O
In the case of B8, the “hIP1 GRPR EC50” value is 1050 nM.

B9: Peptide 73 (peptide)
peptide: {C18 diacid}-[d(γGlu)][AEEA][AEEA]GN[3Pal][Trp(7-Me)]AV[dA]HL[Nle][Sar]-NH2
SMILES: CCCC[C@H](NC(=O)[C@H](CC(C)C)NC(=O)[C@H](Cc1c[nH]cn1)NC(=O)[C@@H](C)NC(=O)[C@@H](NC(=O)[C@H](C)NC(=O)[C@H](Cc1c[nH]c2c(C)cccc12)NC(=O)[C@H](Cc1cccnc1)NC(=O)[C@H](CC(N)=O)NC(=O)CNC(=O)COCCOCCNC(=O)COCCOCCNC(=O)CC[C@@H](NC(=O)CCCCCCCCCCCCCCCCC(=O)O)C(=O)O)C(C)C)C(=O)N(C)CC(N)=O
Turning to B9, the “hIP1 GRPR EC50” value stood at 1190 nM.

B10: Peptide 64 (peptide)
peptide: {C18 diacid}-[d(γGlu)][AEEA][AEEA]GN[3Pal]WAV[dA]HL[Nle]-NH2
SMILES: CCCC[C@H](NC(=O)[C@H](CC(C)C)NC(=O)[C@H](Cc1c[nH]cn1)NC(=O)[C@@H](C)NC(=O)[C@@H](NC(=O)[C@H](C)NC(=O)[C@H](Cc1c[nH]c2ccccc12)NC(=O)[C@H](Cc1cccnc1)NC(=O)[C@H](CC(N)=O)NC(=O)CNC(=O)COCCOCCNC(=O)COCCOCCNC(=O)CC[C@@H](NC(=O)CCCCCCCCCCCCCCCCC(=O)O)C(=O)O)C(C)C)C(N)=O
As to B10, the “hIP1 GRPR EC50” value came to 49.4 nM.

B11: Peptide 66 (peptide)
peptide: {C18 diacid}-[d(γGlu)][AEEA][AEEA]GNHWAV[dA][3Pal]L[Nle]-NH2
SMILES: CCCC[C@H](NC(=O)[C@H](CC(C)C)NC(=O)[C@H](Cc1cccnc1)NC(=O)[C@@H](C)NC(=O)[C@@H](NC(=O)[C@H](C)NC(=O)[C@H](Cc1c[nH]c2ccccc12)NC(=O)[C@H](Cc1c[nH]cn1)NC(=O)[C@H](CC(N)=O)NC(=O)CNC(=O)COCCOCCNC(=O)COCCOCCNC(=O)CC[C@@H](NC(=O)CCCCCCCCCCCCCCCCC(=O)O)C(=O)O)C(C)C)C(N)=O
Consider B11, for which the “hIP1 GRPR EC50” value was 308 nM.

B12: Peptide 74 (peptide)
peptide: {C18 diacid}-[d(γGlu)][AEEA][AEEA][Aib]NHWAV[dA]HL[Nle]-NH2
SMILES: CCCC[C@H](NC(=O)[C@H](CC(C)C)NC(=O)[C@H](Cc1c[nH]cn1)NC(=O)[C@@H](C)NC(=O)[C@@H](NC(=O)[C@H](C)NC(=O)[C@H](Cc1c[nH]c2ccccc12)NC(=O)[C@H](Cc1c[nH]cn1)NC(=O)[C@H](CC(N)=O)NC(=O)C(C)(C)NC(=O)COCCOCCNC(=O)COCCOCCNC(=O)CC[C@@H](NC(=O)CCCCCCCCCCCCCCCCC(=O)O)C(=O)O)C(C)C)C(N)=O
Turning to B12, the “hIP1 GRPR EC50” value came out at 25.5 nM.

B13: Peptide 70 (peptide)
peptide: {C18 diacid}-[d(γGlu)][AEEA][AEEA]GEHW[Aib]V[dA]HL[Nle]-NH2
SMILES: CCCC[C@H](NC(=O)[C@H](CC(C)C)NC(=O)[C@H](Cc1c[nH]cn1)NC(=O)[C@@H](C)NC(=O)[C@@H](NC(=O)C(C)(C)NC(=O)[C@H](Cc1c[nH]c2ccccc12)NC(=O)[C@H](Cc1c[nH]cn1)NC(=O)[C@H](CCC(=O)O)NC(=O)CNC(=O)COCCOCCNC(=O)COCCOCCNC(=O)CC[C@@H](NC(=O)CCCCCCCCCCCCCCCCC(=O)O)C(=O)O)C(C)C)C(N)=O
As to B13, the “hIP1 GRPR EC50” value turned out to be 972 nM.

B14: Peptide 72 (peptide)
peptide: {C18 diacid}-[d(γGlu)][AEEA][AEEA]GN[3Pal]WAV[dA]HL[Nle][Sar]-NH2
SMILES: CCCC[C@H](NC(=O)[C@H](CC(C)C)NC(=O)[C@H](Cc1c[nH]cn1)NC(=O)[C@@H](C)NC(=O)[C@@H](NC(=O)[C@H](C)NC(=O)[C@H](Cc1c[nH]c2ccccc12)NC(=O)[C@H](Cc1cccnc1)NC(=O)[C@H](CC(N)=O)NC(=O)CNC(=O)COCCOCCNC(=O)COCCOCCNC(=O)CC[C@@H](NC(=O)CCCCCCCCCCCCCCCCC(=O)O)C(=O)O)C(C)C)C(=O)N(C)CC(N)=O
In the case of B14, the “hIP1 GRPR EC50” value came out at 1050 nM.

B15: Peptide 68 (peptide)
peptide: {C18 diacid}-[d(γGlu)][AEEA][AEEA]GNHHAV[dA]HL[Nle]-NH2
SMILES: CCCC[C@H](NC(=O)[C@H](CC(C)C)NC(=O)[C@H](Cc1c[nH]cn1)NC(=O)[C@@H](C)NC(=O)[C@@H](NC(=O)[C@H](C)NC(=O)[C@H](Cc1c[nH]cn1)NC(=O)[C@H](Cc1c[nH]cn1)NC(=O)[C@H](CC(N)=O)NC(=O)CNC(=O)COCCOCCNC(=O)COCCOCCNC(=O)CC[C@@H](NC(=O)CCCCCCCCCCCCCCCCC(=O)O)C(=O)O)C(C)C)C(N)=O
For the molecule B15, the “hIP1 GRPR EC50” value is more than 10000 nM.

B16: Peptide 71 (peptide)
peptide: {C18 diacid}-[d(γGlu)][AEEA][AEEA]K(Ac)HWAV[dA]HL[Nle]-NH2
SMILES: CCCC[C@H](NC(=O)[C@H](CC(C)C)NC(=O)[C@H](Cc1c[nH]cn1)NC(=O)[C@@H](C)NC(=O)[C@@H](NC(=O)[C@H](C)NC(=O)[C@H](Cc1c[nH]c2ccccc12)NC(=O)[C@H](Cc1c[nH]cn1)NC(=O)[C@H](CCCCNC(C)=O)NC(=O)COCCOCCNC(=O)COCCOCCNC(=O)CC[C@@H](NC(=O)CCCCCCCCCCCCCCCCC(=O)O)C(=O)O)C(C)C)C(N)=O
For the molecule B16, the “hIP1 GRPR EC50” value stood at 6.2 nM.
